# According to PMC9258321 (2022):
# Read-outs that look alike come from different tables or passages of the source. Ends that are not written are not given here.
# Columns and labels:
# Kelch domain of Keap1 [1] = experiment: SPR
# Kelch domain of Keap1 [2] = experiment: SPR; remark: listed apart in the source
# Chain of Kelch domain of Keap1 (chain, as listed by the source): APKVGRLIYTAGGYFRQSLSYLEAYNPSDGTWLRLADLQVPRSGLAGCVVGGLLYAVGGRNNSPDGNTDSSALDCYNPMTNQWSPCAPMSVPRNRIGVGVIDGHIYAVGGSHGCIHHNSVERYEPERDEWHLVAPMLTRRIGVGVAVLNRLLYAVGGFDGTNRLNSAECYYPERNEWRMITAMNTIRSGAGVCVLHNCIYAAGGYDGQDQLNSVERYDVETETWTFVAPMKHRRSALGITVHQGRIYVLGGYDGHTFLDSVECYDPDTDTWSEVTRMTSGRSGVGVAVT
Kd (Kelch domain of Keap1 [1]) [nM],Kd (Kelch domain of Keap1 [2]) [nM],Binder
415,,"GCPPCASGCSPETGEFCWREDDCPPC (disulfide (positions not given here); also: oxidized (disulfides), pairing of this isomer not given here) [drp3, minor oxidized product]"
,277,GCPPCASGCSPETGEFCWREDDCPPC (disulfide (positions not given here); not fully specified) [drp3-a]
